Experimental data taken from publication PMC2794155.
Read-outs that look alike come from different tables or passages of the source.

Experiments:
[1] = target: T1, NHP6A (Saccharomyces cerevisiae RKY3032, UniProt P11632 1-93); assay: EMSA
[2] = target: MSH2;MSH6 F337A (Saccharomyces cerevisiae;Saccharomyces …, UniProt P25847;Q03834 1-964;1-1242, |F337A); assay: EMSA
[3] = target: T1, NHP6A; assay: EMSA; remark: listed apart in the source
[4] = target: T2, MSH2;MSH6 (Saccharomyces cerevisiae;Saccharomyces …, UniProt P25847;Q03834 1-964;1-1242, |); assay: EMSA
[5] = target: T2, MSH2;MSH6; assay: EMSA; remark: listed apart in the source
[6] = target: NHP6A;MSH2;MSH6 (Saccharomyces cerevisiae …, UniProt P11632;P25847;Q03834 1-93;1-964;1-1242, ||); assay: EMSA supershift
Sequence of NHP6A;MSH2;MSH6 (P11632 whole entry, chain 1 of 3): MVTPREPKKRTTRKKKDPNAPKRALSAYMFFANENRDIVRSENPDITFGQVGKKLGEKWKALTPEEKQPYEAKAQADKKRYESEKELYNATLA
Sequence of NHP6A;MSH2;MSH6 (P25847 whole entry, chain 2 of 3): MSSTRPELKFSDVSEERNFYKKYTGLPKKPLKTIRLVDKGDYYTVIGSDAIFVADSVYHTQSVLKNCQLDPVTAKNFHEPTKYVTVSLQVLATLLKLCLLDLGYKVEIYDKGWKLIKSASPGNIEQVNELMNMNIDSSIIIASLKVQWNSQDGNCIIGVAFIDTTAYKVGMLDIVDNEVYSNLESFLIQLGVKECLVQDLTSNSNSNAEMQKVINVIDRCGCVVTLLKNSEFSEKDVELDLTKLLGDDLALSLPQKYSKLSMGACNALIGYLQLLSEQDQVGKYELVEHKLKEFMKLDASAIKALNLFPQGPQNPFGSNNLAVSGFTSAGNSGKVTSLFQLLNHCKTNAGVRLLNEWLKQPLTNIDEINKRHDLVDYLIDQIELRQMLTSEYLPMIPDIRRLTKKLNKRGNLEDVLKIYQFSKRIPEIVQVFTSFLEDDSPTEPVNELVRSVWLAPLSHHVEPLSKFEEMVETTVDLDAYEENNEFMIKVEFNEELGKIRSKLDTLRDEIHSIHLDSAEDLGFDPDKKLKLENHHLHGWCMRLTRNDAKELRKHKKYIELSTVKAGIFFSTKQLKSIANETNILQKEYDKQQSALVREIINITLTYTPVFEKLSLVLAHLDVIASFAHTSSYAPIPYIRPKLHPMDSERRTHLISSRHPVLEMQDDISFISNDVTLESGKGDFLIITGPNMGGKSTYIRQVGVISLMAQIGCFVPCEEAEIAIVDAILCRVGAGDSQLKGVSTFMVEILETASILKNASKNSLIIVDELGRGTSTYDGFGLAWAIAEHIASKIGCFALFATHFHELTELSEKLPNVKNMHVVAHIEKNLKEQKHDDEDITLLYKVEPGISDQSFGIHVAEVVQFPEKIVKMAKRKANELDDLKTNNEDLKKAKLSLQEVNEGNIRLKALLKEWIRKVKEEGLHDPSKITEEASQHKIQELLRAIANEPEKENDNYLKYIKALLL
Sequence of NHP6A;MSH2;MSH6 (Q03834 whole entry, chain 3 of 3): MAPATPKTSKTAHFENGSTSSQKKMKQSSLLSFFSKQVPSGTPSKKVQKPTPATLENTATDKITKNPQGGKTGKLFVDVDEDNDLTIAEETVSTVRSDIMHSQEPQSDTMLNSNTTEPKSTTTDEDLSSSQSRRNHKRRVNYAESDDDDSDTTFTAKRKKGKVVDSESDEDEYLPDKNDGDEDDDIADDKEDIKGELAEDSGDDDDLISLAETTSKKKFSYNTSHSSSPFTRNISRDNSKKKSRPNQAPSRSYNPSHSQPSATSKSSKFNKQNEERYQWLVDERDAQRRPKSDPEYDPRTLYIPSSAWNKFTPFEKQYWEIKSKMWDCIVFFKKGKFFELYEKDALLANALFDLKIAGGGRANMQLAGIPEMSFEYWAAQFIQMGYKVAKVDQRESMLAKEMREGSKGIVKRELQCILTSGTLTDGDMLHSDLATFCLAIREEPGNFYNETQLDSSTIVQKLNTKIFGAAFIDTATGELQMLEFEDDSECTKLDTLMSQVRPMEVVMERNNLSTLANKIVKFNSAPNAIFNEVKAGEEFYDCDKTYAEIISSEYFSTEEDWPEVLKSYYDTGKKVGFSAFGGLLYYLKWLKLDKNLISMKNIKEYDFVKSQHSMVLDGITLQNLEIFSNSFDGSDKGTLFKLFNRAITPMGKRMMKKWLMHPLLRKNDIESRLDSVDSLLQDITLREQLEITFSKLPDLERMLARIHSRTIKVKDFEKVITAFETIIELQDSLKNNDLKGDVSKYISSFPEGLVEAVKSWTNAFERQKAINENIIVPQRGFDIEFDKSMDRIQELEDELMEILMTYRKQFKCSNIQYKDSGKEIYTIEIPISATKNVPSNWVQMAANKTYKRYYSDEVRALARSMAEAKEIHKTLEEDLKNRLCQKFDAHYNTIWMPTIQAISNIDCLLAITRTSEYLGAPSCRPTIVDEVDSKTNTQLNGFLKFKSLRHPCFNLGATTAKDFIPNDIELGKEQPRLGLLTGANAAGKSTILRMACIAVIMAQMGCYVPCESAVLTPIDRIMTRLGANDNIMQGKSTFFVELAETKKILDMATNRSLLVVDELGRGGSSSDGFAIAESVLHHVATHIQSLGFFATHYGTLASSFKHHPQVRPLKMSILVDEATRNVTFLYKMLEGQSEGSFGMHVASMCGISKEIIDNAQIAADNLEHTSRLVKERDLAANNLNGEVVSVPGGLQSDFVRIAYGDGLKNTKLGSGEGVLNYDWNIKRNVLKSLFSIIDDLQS

T1 sequence (P11632 whole entry): as the sequence (P11632 whole entry, chain 1 of 3) above
T2 sequence (P25847 whole entry, chain 1 of 2): as the sequence (P25847 whole entry, chain 2 of 3) above
T2 sequence (Q03834 whole entry, chain 2 of 2): as the sequence (Q03834 whole entry, chain 3 of 3) above
Sequence of MSH2;MSH6 F337A (P25847 whole entry, chain 1 of 2): as the sequence (P25847 whole entry, chain 2 of 3) above
Sequence of MSH2;MSH6 F337A (Q03834 whole entry F337A, chain 2 of 2): as the sequence (Q03834 whole entry, chain 3 of 3) above, with F337A counted along it

| Binder | binding result [1] | binding result [3] | also measured |
| --- | --- | --- | --- |
| 37-mer G:C homoduplex (A/T in figures) (dsDNA) DNA 1: ATTTCCTTCAGCAGATAGGAACCATACTGATTCACAT DNA 2: ATGTGAATCAGTATGGTTCCTATCTGCTGAAGGAAAT | binds | – | – |
| 37-mer G:T heteroduplex (dsDNA) DNA 1: ATTTCCTTCAGCAGATAGGAACCATACTGATTCACAT DNA 2: ATGTGAATCAGTATGGTTTCTATCTGCTGAAGGAAAT | binds | – | – |
| 50-mer T:A homoduplex (dsDNA) DNA 1: CTCATTCAGCATAACTTGATTTCTTTCAGCAGATAGAAACCATACTGATT DNA 2: AATCAGTATGGTTTCTATCTGCTGAAAGAAATCAAGTTATGCTGAATGAG | – | binds | binding result [2]: no binding; binding result [4]: binds |
| 50-mer T:G heteroduplex (dsDNA) DNA 1: CTCATTCAGCATAACTTGATTTCTTTCAGCAGATAGAAACCATACTGATT DNA 2: AATCAGTATGGTTTCTATCTGCTGAAGGAAATCAAGTTATGCTGAATGAG | – | binds | binding result [5]: binds; binding result [6]: binds |
